# From patent US9144594B2, “Cathepsin L mediated diseases and associated methods and products” (University of Miami, priority 2005, dated 2015)
# How the values were obtained:
# [1] = tested on: dynamin; experiment: Dynamin self-assembly, apparent affinity measured in vitro; format: biochemical
# Text: The fact that this significant decrease in the fluorescence lifetime of ECFP is statistically insignificant is due to high fluctuations of the lifetimes between different cells (high error bar in Table 3). This is most likely due to ability of dynK694A to overcome its assembly defect under certain circumstances as shown in vitro. The fact that ECFP-dynK694A has a faster lifetime than ECFP-dynI690K is in agreement with its less severe assembly defect measured in vitro (apparent affinity of dynK694A is ˜7-fold lower then dynWT, whereas it is unmeasurable for dynI690K).
# [2] = tested on: podocytes; experiment: Podocyte motility, modified Boyden chamber assay; format: cell-based, mouse; settings: adenoviral overexpression
# Text: This study examined the role of dynamin in actin dynamics of podocytes. An adenoviral expression system was utilized to obtain expression of various dynamin mutants with more than 90% infection efficiency in cultured differentiated mouse podocytes and analyzed the organization of the actin cytoskeleton, their migratory and endocytotic behavior (FIG. 1). […] This type of actin rearrangement in cultured podocytes is resembling actin rearrangement in damaged podocytes during proteinuria in situ (Smoyer and Mundel, 1998). […] Thus, the consequence on actin dynamics in podocytes was examined when dynamin is hyperactive by expressing known dominant activators, dynK694A and dynR725A (SEQ ID NO.4). Both mutants are predicted to live longer in the GTP-bound form. […] To further examine this surprising phenotype in a biological context, motility assays were performed next using a modified Boyden Chamber assay.
# Podocyte migration was analyzed using a 12-well chemotaxis chamber (Neuro Probe) according to the manufacturer's protocol. In brief, differentiated podocytes were treated with 50 μg/ml of LPS or PAN for 24 h and then harvested for the migration assay. Bottom plates were coated with type-I collagen, while upper plates were loaded with equal number of cells (5×10^4) suspended in medium. The chamber was incubated at 37° C. for 4 h before unassembled. The membrane was then taken out, processed and finally stained with diamidino phenylindole (DAPI) (Vector). The average number of migrated cells was counted in four fields in six independent experiments.
# Podocytes were grown under non-permissive conditions to 70% confluence. Cells were washed twice with 1×PBS and infected with 1.2 ml of serum-free DMEM media containing 100 μl transactivator virus, 100 μl virus expressing dyn1 or dyn2. After 2 h of infection at 37° C., media containing virus was replaced with full DMEM. If cells were treated with LPS or PAN, 50 μg/ml of LPS or 50 μg/ml PAN was added at this point. 18-24 h post-infection, cells were detached using trypsin and processed either for subcellular fractionation or tested in the motility assays as described in (Reiser et al., J Biol Chem 279, 34827-34832 (2004)). When stated, 20 μM of Z-FF-FMK CatL specific inhibitor (Calbiochem, San Diego, Calif.) was added simultaneously with addition of LPS.
molecule,measurement,setting,value
dynK694A: dominant activator dynamin mutant impaired in self-assembly (protein) MGNRGMEDLIPLVNRLQDAFSAIGQNADLDLPQIAVVGGQSAGKSSVLENFVGRDFLPRGSGIVTRRPLVLQLVNATTEYAEFLHCKGKKFTDFEEVRLEIEAETDRVTGTNKGISPVPINLRVYSPHVLNLTLVDLPGMTKVPVGDQPPDIEFQIRDMLMQFVTKENCLILAVSPANSDLANSDALKVAKEVDPQGQRTIGVITKLDLMDEGTDARDVLENKLLPLRRGYIGVVNRSQKDIDGKKDITAALAAERKFFLSHPSYRHLADRMGTPYLQKVLNQQLTNHIRDTLPGLRNKLQSQLLSIEKEVEEYKNFRPDDPARKTKALLQMVQQFAVDFEKRIEGSGDQIDTYELSGGARINRIFHERFPFELVKMEFDEKELRREISYAIKNIHGIRTGLFTPDMAFETIVKKQVKKIREPCLKCVDMVISELISTVRQCTKKLQQYPRLREEMERIVTTHIREREGRTKEQVMLLIDIELAYMNTNHEDFIGFANAQQRSNQMNKKKTSGNQDEILVIRKGWLTINNIGIMKGGSKEYWFVLTAENLSWYKDDEEKEKKYMLSVDNLKLRDVEKGFMSSKHIFALFNTEQRNVYKDYRQLELACETQEEVDSWKASFLRAGVYPERVGDKEKASETEENGSDSFMHSMDPQLERQVETIRNLVDSYMAIVNKTVRDLMPKTIMHLMINNTAEFIFSELLANLYSCGDQNTLMEESAEQAQRRDEMLRMYHALKEALSIIGDINTTTVSTPMPPPVDDSWLQVQSVPAGRRSPTSSPTPQRRAPAVPPARPGSRGPAPGPPPAGSALGGAPPVPSRPGASPDPFGPPPQVPSRPNRAPPGVPSRSGQASPSRPESPRPPFDL,"apparent affinity for self-assembly, fold lower than dynWT",[1],~7 fold
same,"podocyte motility, in words",[2],did not change podocyte motility
